# Measured values published in the MegaScale stability set (Tsuboyama et al. 2023).
# B1: HEEH_KT_rd6_0790 (parent)
# chain: SEEEEEEWRRAKERGEEIIILGILWKPNDEEAERRIKEALRRV
# Variants of: B1
# Test: folding stability dG (cDNA display proteolysis); higher = more stable
# Details: PBS, room temperature
row,Variant,folding stability dG [kcal/mol]
1,SEEEEEEWRRAKERGEEIIILGILWKPNDENAERRIKEALRRV [E31N],1.69
2,SEEEEEEWRRAKERGEEIIILGILWKPNDEPAERRIKEALRRV [E31P],0.967
3,SEEEEEEWRRAKERGEEIIILGILWKPNDEQAERRIKEALRRV [E31Q],1.72
4,SEEEEEEWRRAKERGEEIIILGILWKPNDERAERRIKEALRRV [E31R],1.38
5,SEEEEEEWRRAKERGEEIIILGILWKPNDESAERRIKEALRRV [E31S],1.69
6,SEEEEEEWRRAKERGEEIIILGILWKPNDETAERRIKEALRRV [E31T],1.79
7,SEEEEEEWRRAKERGEEIIILGILWKPNDEVAERRIKEALRRV [E31V],1.9
8,SEEEEEEWRRAKERGEEIIILGILWKPNDEWAERRIKEALRRV [E31W],1.5
9,SEEEEEEWRRAKERGEEIIILGILWKPNDEYAERRIKEALRRV [E31Y],1.56
10,SEEEEEEWRRAKERGEEIIILGILWKPNDEEDERRIKEALRRV [A32D],0.955
11,SEEEEEEWRRAKERGEEIIILGILWKPNDEEEERRIKEALRRV [A32E],1.25
12,SEEEEEEWRRAKERGEEIIILGILWKPNDEEFERRIKEALRRV [A32F],0.917
13,SEEEEEEWRRAKERGEEIIILGILWKPNDEEGERRIKEALRRV [A32G],1.2
14,SEEEEEEWRRAKERGEEIIILGILWKPNDEEHERRIKEALRRV [A32H],0.931
15,SEEEEEEWRRAKERGEEIIILGILWKPNDEEIERRIKEALRRV [A32I],1.39
16,SEEEEEEWRRAKERGEEIIILGILWKPNDEEKERRIKEALRRV [A32K],0.96
17,SEEEEEEWRRAKERGEEIIILGILWKPNDEELERRIKEALRRV [A32L],1.41
18,SEEEEEEWRRAKERGEEIIILGILWKPNDEEMERRIKEALRRV [A32M],1.26
19,SEEEEEEWRRAKERGEEIIILGILWKPNDEENERRIKEALRRV [A32N],1.02
20,SEEEEEEWRRAKERGEEIIILGILWKPNDEEPERRIKEALRRV [A32P],0.466
21,SEEEEEEWRRAKERGEEIIILGILWKPNDEEQERRIKEALRRV [A32Q],1.07
22,SEEEEEEWRRAKERGEEIIILGILWKPNDEERERRIKEALRRV [A32R],1.12
23,SEEEEEEWRRAKERGEEIIILGILWKPNDEESERRIKEALRRV [A32S],1.96
24,SEEEEEEWRRAKERGEEIIILGILWKPNDEETERRIKEALRRV [A32T],1.55

row,Variant,folding stability dG [kcal/mol]
1,SEEEEEEWRRAKERGEEIIILGILWKPNDEEVERRIKEALRRV [A32V],1.37
2,SEEEEEEWRRAKERGEEIIILGILWKPNDEEWERRIKEALRRV [A32W],1.02
3,SEEEEEEWRRAKERGEEIIILGILWKPNDEEYERRIKEALRRV [A32Y],1.07
4,SEEEEEEWRRAKERGEEIIILGILWKPNDEEAARRIKEALRRV [E33A],1.72
5,SEEEEEEWRRAKERGEEIIILGILWKPNDEEADRRIKEALRRV [E33D],2.01
6,SEEEEEEWRRAKERGEEIIILGILWKPNDEEAFRRIKEALRRV [E33F],1.66
7,SEEEEEEWRRAKERGEEIIILGILWKPNDEEAGRRIKEALRRV [E33G],1.49
8,SEEEEEEWRRAKERGEEIIILGILWKPNDEEAHRRIKEALRRV [E33H],1.3
9,SEEEEEEWRRAKERGEEIIILGILWKPNDEEAIRRIKEALRRV [E33I],1.49
10,SEEEEEEWRRAKERGEEIIILGILWKPNDEEAKRRIKEALRRV [E33K],1.09
11,SEEEEEEWRRAKERGEEIIILGILWKPNDEEALRRIKEALRRV [E33L],1.7
12,SEEEEEEWRRAKERGEEIIILGILWKPNDEEAMRRIKEALRRV [E33M],1.7
13,SEEEEEEWRRAKERGEEIIILGILWKPNDEEANRRIKEALRRV [E33N],1.61
14,SEEEEEEWRRAKERGEEIIILGILWKPNDEEAPRRIKEALRRV [E33P],0.529
15,SEEEEEEWRRAKERGEEIIILGILWKPNDEEAQRRIKEALRRV [E33Q],1.31
16,SEEEEEEWRRAKERGEEIIILGILWKPNDEEARRRIKEALRRV [E33R],1.29
17,SEEEEEEWRRAKERGEEIIILGILWKPNDEEASRRIKEALRRV [E33S],1.68
18,SEEEEEEWRRAKERGEEIIILGILWKPNDEEATRRIKEALRRV [E33T],1.98
19,SEEEEEEWRRAKERGEEIIILGILWKPNDEEAVRRIKEALRRV [E33V],1.52
20,SEEEEEEWRRAKERGEEIIILGILWKPNDEEAWRRIKEALRRV [E33W],1.99
21,SEEEEEEWRRAKERGEEIIILGILWKPNDEEAYRRIKEALRRV [E33Y],1.71
22,SEEEEEEWRRAKERGEEIIILGILWKPNDEEAEARIKEALRRV [R34A],2.22
23,SEEEEEEWRRAKERGEEIIILGILWKPNDEEAECRIKEALRRV [R34C],2.5
24,SEEEEEEWRRAKERGEEIIILGILWKPNDEEAEDRIKEALRRV [R34D],1.64

row,Variant,folding stability dG [kcal/mol]
1,SEEEEEEWRRAKERGEEIIILGILWKPNDEEAEERIKEALRRV [R34E],2.12
2,SEEEEEEWRRAKERGEEIIILGILWKPNDEEAEFRIKEALRRV [R34F],1.9
3,SEEEEEEWRRAKERGEEIIILGILWKPNDEEAEGRIKEALRRV [R34G],1.63
4,SEEEEEEWRRAKERGEEIIILGILWKPNDEEAEHRIKEALRRV [R34H],1.73
5,SEEEEEEWRRAKERGEEIIILGILWKPNDEEAEIRIKEALRRV [R34I],1.77
6,SEEEEEEWRRAKERGEEIIILGILWKPNDEEAEKRIKEALRRV [R34K],2.06
7,SEEEEEEWRRAKERGEEIIILGILWKPNDEEAELRIKEALRRV [R34L],2.06
8,SEEEEEEWRRAKERGEEIIILGILWKPNDEEAEMRIKEALRRV [R34M],2.12
9,SEEEEEEWRRAKERGEEIIILGILWKPNDEEAENRIKEALRRV [R34N],2
10,SEEEEEEWRRAKERGEEIIILGILWKPNDEEAEPRIKEALRRV [R34P],0.726
11,SEEEEEEWRRAKERGEEIIILGILWKPNDEEAEQRIKEALRRV [R34Q],2.14
12,SEEEEEEWRRAKERGEEIIILGILWKPNDEEAESRIKEALRRV [R34S],2.02
13,SEEEEEEWRRAKERGEEIIILGILWKPNDEEAETRIKEALRRV [R34T],1.9
14,SEEEEEEWRRAKERGEEIIILGILWKPNDEEAEVRIKEALRRV [R34V],1.87
15,SEEEEEEWRRAKERGEEIIILGILWKPNDEEAEWRIKEALRRV [R34W],1.92
16,SEEEEEEWRRAKERGEEIIILGILWKPNDEEAEYRIKEALRRV [R34Y],1.87
17,SEEEEEEWRRAKERGEEIIILGILWKPNDEEAERAIKEALRRV [R35A],2.21
18,SEEEEEEWRRAKERGEEIIILGILWKPNDEEAERDIKEALRRV [R35D],1.49
19,SEEEEEEWRRAKERGEEIIILGILWKPNDEEAEREIKEALRRV [R35E],1.68
20,SEEEEEEWRRAKERGEEIIILGILWKPNDEEAERFIKEALRRV [R35F],1.38
21,SEEEEEEWRRAKERGEEIIILGILWKPNDEEAERGIKEALRRV [R35G],1.32
22,SEEEEEEWRRAKERGEEIIILGILWKPNDEEAERHIKEALRRV [R35H],1.61
23,SEEEEEEWRRAKERGEEIIILGILWKPNDEEAERIIKEALRRV [R35I],1.66
24,SEEEEEEWRRAKERGEEIIILGILWKPNDEEAERKIKEALRRV [R35K],2.09

row,Variant,folding stability dG [kcal/mol]
1,SEEEEEEWRRAKERGEEIIILGILWKPNDEEAERLIKEALRRV [R35L],2.19
2,SEEEEEEWRRAKERGEEIIILGILWKPNDEEAERMIKEALRRV [R35M],2.2
3,SEEEEEEWRRAKERGEEIIILGILWKPNDEEAERNIKEALRRV [R35N],1.62
4,SEEEEEEWRRAKERGEEIIILGILWKPNDEEAERPIKEALRRV [R35P],0.078
5,SEEEEEEWRRAKERGEEIIILGILWKPNDEEAERQIKEALRRV [R35Q],2.14
6,SEEEEEEWRRAKERGEEIIILGILWKPNDEEAERSIKEALRRV [R35S],1.71
7,SEEEEEEWRRAKERGEEIIILGILWKPNDEEAERTIKEALRRV [R35T],1.5
8,SEEEEEEWRRAKERGEEIIILGILWKPNDEEAERVIKEALRRV [R35V],1.48
9,SEEEEEEWRRAKERGEEIIILGILWKPNDEEAERWIKEALRRV [R35W],1.56
10,SEEEEEEWRRAKERGEEIIILGILWKPNDEEAERYIKEALRRV [R35Y],1.18
11,SEEEEEEWRRAKERGEEIIILGILWKPNDEEAERRAKEALRRV [I36A],1.11
12,SEEEEEEWRRAKERGEEIIILGILWKPNDEEAERRDKEALRRV [I36D],0.894
13,SEEEEEEWRRAKERGEEIIILGILWKPNDEEAERREKEALRRV [I36E],0.641
14,SEEEEEEWRRAKERGEEIIILGILWKPNDEEAERRFKEALRRV [I36F],1.5
15,SEEEEEEWRRAKERGEEIIILGILWKPNDEEAERRGKEALRRV [I36G],1.03
16,SEEEEEEWRRAKERGEEIIILGILWKPNDEEAERRHKEALRRV [I36H],0.809
17,SEEEEEEWRRAKERGEEIIILGILWKPNDEEAERRKKEALRRV [I36K],0.876
18,SEEEEEEWRRAKERGEEIIILGILWKPNDEEAERRLKEALRRV [I36L],1.49
19,SEEEEEEWRRAKERGEEIIILGILWKPNDEEAERRMKEALRRV [I36M],1.39
20,SEEEEEEWRRAKERGEEIIILGILWKPNDEEAERRNKEALRRV [I36N],0.613
21,SEEEEEEWRRAKERGEEIIILGILWKPNDEEAERRPKEALRRV [I36P],0.142
22,SEEEEEEWRRAKERGEEIIILGILWKPNDEEAERRQKEALRRV [I36Q],0.909
23,SEEEEEEWRRAKERGEEIIILGILWKPNDEEAERRRKEALRRV [I36R],0.952
24,SEEEEEEWRRAKERGEEIIILGILWKPNDEEAERRSKEALRRV [I36S],0.815

row,Variant,folding stability dG [kcal/mol]
1,SEEEEEEWRRAKERGEEIIILGILWKPNDEEAERRTKEALRRV [I36T],1.06
2,SEEEEEEWRRAKERGEEIIILGILWKPNDEEAERRVKEALRRV [I36V],2.01
3,SEEEEEEWRRAKERGEEIIILGILWKPNDEEAERRWKEALRRV [I36W],1.32
4,SEEEEEEWRRAKERGEEIIILGILWKPNDEEAERRYKEALRRV [I36Y],1.02
5,SEEEEEEWRRAKERGEEIIILGILWKPNDEEAERRIAEALRRV [K37A],1.92
6,SEEEEEEWRRAKERGEEIIILGILWKPNDEEAERRIDEALRRV [K37D],1.93
7,SEEEEEEWRRAKERGEEIIILGILWKPNDEEAERRIEEALRRV [K37E],2.49
8,SEEEEEEWRRAKERGEEIIILGILWKPNDEEAERRIFEALRRV [K37F],2.11
9,SEEEEEEWRRAKERGEEIIILGILWKPNDEEAERRIGEALRRV [K37G],1.43
10,SEEEEEEWRRAKERGEEIIILGILWKPNDEEAERRIHEALRRV [K37H],2
11,SEEEEEEWRRAKERGEEIIILGILWKPNDEEAERRIIEALRRV [K37I],2.56
12,SEEEEEEWRRAKERGEEIIILGILWKPNDEEAERRILEALRRV [K37L],2.75
13,SEEEEEEWRRAKERGEEIIILGILWKPNDEEAERRIMEALRRV [K37M],2.23
14,SEEEEEEWRRAKERGEEIIILGILWKPNDEEAERRINEALRRV [K37N],2.35
15,SEEEEEEWRRAKERGEEIIILGILWKPNDEEAERRIPEALRRV [K37P],0.399
16,SEEEEEEWRRAKERGEEIIILGILWKPNDEEAERRIQEALRRV [K37Q],2.04
17,SEEEEEEWRRAKERGEEIIILGILWKPNDEEAERRIREALRRV [K37R],2.37
18,SEEEEEEWRRAKERGEEIIILGILWKPNDEEAERRISEALRRV [K37S],1.85
19,SEEEEEEWRRAKERGEEIIILGILWKPNDEEAERRITEALRRV [K37T],2.4
20,SEEEEEEWRRAKERGEEIIILGILWKPNDEEAERRIVEALRRV [K37V],2.44
21,SEEEEEEWRRAKERGEEIIILGILWKPNDEEAERRIWEALRRV [K37W],2.3
22,SEEEEEEWRRAKERGEEIIILGILWKPNDEEAERRIYEALRRV [K37Y],2.08
